B1: paxillin fragment residues G139-K277 (PaxLD2-LD4) (domain or fragment)
chain: MGSNLSELDRLLLELNAVQHNPPGFPADEANSSPPLPGALSPLYGVPETNSPLGGKAGPLTKEKPKRNGGRGLEDVRPSVESLLDELESSVPSPVPAITVNQGEMSSPQRVTSTQQQTRISASSATRELDELMASLSDFK
notes: initiation Met introduced before G139; paxillin residues G139-K277, holding the LD2, LD3 and LD4 repeats; Used 15N-labelled or unlabelled; also called recombinant paxillin (residues G139-K277 encompassing LD2-LD4); source: E. coli BL21(DE3), purified (NTA beads, HPLC)
B4: integrin α4 cytosolic tail (Lys968-Asp999) (domain or fragment)
chain: KAGFFKRQYKSILQEENRRDSWSYINSKSNDD
notes: Used 15N-labelled or unlabelled in the HSQC experiments; also called α4 CT; full-length α4 CT; source: E. coli BL21(DE3), KSI fusion from inclusion bodies, purified (Ni-NTA, cyanogen bromide cleavage, HPLC); not shown: His6, N-terminal, cleaved; ketosteroid isomerase (KSI), N-terminal, cleaved

Common to all, as to details: both partners purified
Test [1] deals with B4. Nature of the test: NMR titration; 15N-1H HSQC of 15N-labelled α4 CT (100 µM) without and with unlabelled PaxLD2-LD4, molar ratios 1:1 and 1:2; 10 mM sodium phosphate, pH 6.5, 298 K.
The target in test [2] is B4. Put plainly: NMR titration; 15N-1H HSQC of 15N-labelled α4 CT without and with unlabelled synthetic LD-containing peptides, ratio 1:4 (α4 CT:peptides).
Test [3] has as its target B1. Put plainly: NMR titration; 15N-1H HSQC of 15N-labelled PaxLD2-LD4 (200 µM) without and with unlabelled α4 CT, molar ratios 1:1 and 1:2; 10 mM sodium phosphate, pH 6.5, 298 K.

The values that follow come from paper PMC3561355, “NMR Structure of Integrin α4 Cytosolic Tail and Its Interactions with Paxillin” (PLoS ONE, 2013).

As for B1, in test [1], the binding result was “binds”.

B2: paxillin LD4-containing peptide (peptide)
peptide: ATRELDELMASLSDFKFMAQ
notes: paxillin stretch holding the LD4 repeat; runs four residues (FMAQ) beyond K277, the end of PaxLD2-LD4; also called peptide-containing LD4; source: synthetic peptide, bought: GL Biochem (Shanghai), further purified by reverse phase HPLC
For the molecule B2, in test [2], the binding result is given as “binds”.

B3: paxillin LD3-containing peptide (peptide)
peptide: VRPSVESLLDELESSVPSPV
notes: paxillin stretch holding the LD3 repeat; also called peptide-containing LD3; source: synthetic peptide, bought: GL Biochem (Shanghai), further purified by reverse phase HPLC
For B3, in test [2], the binding result is recorded as “binds”.
Regarding B4, the binding result in test [3] is “binds”.
